Laboratory results from US20180143213A1.

Legend:
[1] = target: beta2-adrenergic receptor-luciferase fusion protein (human); test: bridge assay (Example 4A), sc-569 at 1 ng/ml in buffer
[2] = target: beta2-adrenergic receptor-luciferase fusion protein (human); test: bridge assay (Example 4A), sc-569 at 2 ng/ml in buffer
[3] = target: beta2-adrenergic receptor-luciferase fusion protein (human); test: bridge assay (Example 4A), sc-569 at 5 ng/ml in buffer
[4] = target: beta2-adrenergic receptor-luciferase fusion protein (human); test: bridge assay (Example 4A), sc-569 at 10 ng/ml in buffer
[5] = target: beta2-adrenergic receptor-luciferase fusion protein (human); test: bridge assay (Example 4A), sc-569 at 20 ng/ml in buffer
[6] = target: beta2-adrenergic receptor-luciferase fusion protein (human); test: bridge assay (Example 4A), sc-569 at 50 ng/ml in buffer
[7] = target: beta2-adrenergic receptor-luciferase fusion protein (human); test: bridge assay (Example 4A), sc-569 at 100 ng/ml in buffer
[8] = target: beta2-adrenergic receptor-luciferase fusion protein (human); test: bridge assay (Example 4A), sc-569 at 200 ng/ml in buffer
[9] = target: beta2-adrenergic receptor-luciferase fusion protein (human); test: bridge assay (Example 4A), sc-569 at 500 ng/ml in buffer
[10] = target: beta2-adrenergic receptor-luciferase fusion protein (human); test: bridge assay (Example 4A), sc-569 at 1000 ng/ml in buffer
[11] = target: beta2-adrenergic receptor-luciferase fusion protein (human); test: bridge assay (Example 4A), sc-569 at 2000 ng/ml in buffer
[12] = target: beta2-adrenergic receptor-luciferase fusion protein (human); test: bridge assay (Example 4A), sc-569 at 5000 ng/ml in buffer
[13] = target: beta2-adrenergic receptor-luciferase fusion protein (human); test: bridge assay (Example 4A), sc-569 at 10000 ng/ml in buffer
[14] = target: beta2-adrenergic receptor-luciferase fusion protein (human); test: bridge assay (Example 4A), sc-569 at 20000 ng/ml in buffer

Substance: Antibodies against B2 (sc-569 Santa Cruz, Calif., USA) (antibody)
- RLU [1]: 24400 RLU
- RLU [2]: 25800 RLU
- RLU [3]: 28100 RLU
- RLU [4]: 33400 RLU
- RLU [5]: 45100 RLU
- RLU [6]: 76000 RLU
- RLU [7]: 93900 RLU
- RLU [8]: 187000 RLU
- RLU [9]: 392000 RLU
- RLU [10]: 558000 RLU
- RLU [11]: 948000 RLU
- RLU [12]: 1.71e+06 RLU
- RLU [13]: 2.39e+06 RLU
- RLU [14]: 2.87e+06 RLU
